Data: patent US20230279406A1
Values belong to the binder of their own block, whether it stands above or below them.

Assays:
Assay in all cases: cell-based or functional assay
[1] = biological target: T1, CD380 PV1-RfxCas13d-656C-NLS-BGHpA
T1 sequence: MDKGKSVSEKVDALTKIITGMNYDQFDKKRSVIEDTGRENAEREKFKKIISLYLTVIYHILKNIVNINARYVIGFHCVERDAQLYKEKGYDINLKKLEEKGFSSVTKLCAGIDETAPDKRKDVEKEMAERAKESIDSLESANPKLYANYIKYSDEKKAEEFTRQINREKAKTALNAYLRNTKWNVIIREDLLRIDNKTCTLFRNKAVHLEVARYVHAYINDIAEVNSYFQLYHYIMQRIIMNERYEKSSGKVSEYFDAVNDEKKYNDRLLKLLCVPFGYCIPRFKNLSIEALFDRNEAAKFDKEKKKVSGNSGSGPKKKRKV

[2] = biological target: CD176 PV1-tandem CaffVHH-L1-iCre-271C-NLS-BGHpA
CD176 PV1-tandem CaffVHH-L1-iCre-271C-NLS-BGHpA, sequence (chain, as listed by the source): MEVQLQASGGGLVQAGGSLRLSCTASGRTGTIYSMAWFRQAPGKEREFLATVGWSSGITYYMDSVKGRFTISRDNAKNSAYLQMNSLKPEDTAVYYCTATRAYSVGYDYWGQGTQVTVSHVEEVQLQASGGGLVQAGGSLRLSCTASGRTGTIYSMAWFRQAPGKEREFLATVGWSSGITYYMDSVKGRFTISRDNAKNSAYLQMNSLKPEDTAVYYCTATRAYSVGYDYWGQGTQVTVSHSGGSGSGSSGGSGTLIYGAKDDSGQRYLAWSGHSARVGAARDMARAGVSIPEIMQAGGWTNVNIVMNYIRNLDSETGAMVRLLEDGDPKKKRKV

[3] = biological target: T2, CD376 PV1-RfxCas13d-566C-NLS-BGHpA
T2 sequence: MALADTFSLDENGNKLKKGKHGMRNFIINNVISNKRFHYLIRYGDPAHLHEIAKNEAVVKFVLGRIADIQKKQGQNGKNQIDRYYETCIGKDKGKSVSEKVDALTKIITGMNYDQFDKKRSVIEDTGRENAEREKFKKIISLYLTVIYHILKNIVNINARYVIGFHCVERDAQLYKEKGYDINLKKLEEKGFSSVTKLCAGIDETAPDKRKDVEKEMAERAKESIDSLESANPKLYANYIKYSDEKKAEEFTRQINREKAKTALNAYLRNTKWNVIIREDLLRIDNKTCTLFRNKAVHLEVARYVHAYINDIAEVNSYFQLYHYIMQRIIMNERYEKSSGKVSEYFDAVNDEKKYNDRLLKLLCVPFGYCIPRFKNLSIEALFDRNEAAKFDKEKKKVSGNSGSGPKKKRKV

gRNA induced mCherry knockdown efficiency, no CID domain [1]: < 80%
B1: CD379 PV1-RfxCas13d-N655-NLS-BGHpA (protein)
chain: MIEKKKSFAKGMGVKSTLVSGSKVYMTTFAEGSDARLEKIVEGDSIRSVNEGEAFSAEMADKNAGYKIGNAKFSHPKGYAVVANNPLYTGPVQQDMLGLKETLEKRYFGESADGNDNICIQVIHNILDIEKILAEYITNAAYAVNNISGLDKDIIGFGKFSTVYTYDEFKDPEHHRAAFNNNDKLINAIKAQYDEFDNFLDNPRLGYFGQAFFSKEGRNYIINYGNECYDILALLSGLRHWVVHNNEEESRISRTWLYNLDKNLDNEYISTLNYLYDRITNELTNSFSKNSAANVNYIAETLGINPAEFAEQYFRFSIMKEQKNLGFNITKLREVMLDRKDMSEIRKNHKVFDSIRTKVYTMMDFVIYRYYIEEDAKVAAANKSLPDNEKSLSEKDIFVINLRGSFNDDQKDALYYDEANRIWRKLENIMHNIKEFRGNKTREYKKKDAPRLPRILPAGRDVSAFSKLMYALTMFLDGKEINDLLTTLINKFDNIQSFLKVMPLIGVNAKFVEEYAFFKDSAKIADELRLIKSFARMGEPIADARRAMYIDAIRILGTNLSYDELKALADTFSLDENGNKLKKGKHGMRNFIINNVISNKRFHYLIRYGDPAHLHEIAKNEAVVKFVLGRIADIQKKQGQNGKNQIDRYYETCIGKPKKKRKV

recombination upon caffeine induction, tandem against single CaffVHH split Cre 270/271 [2]: < 13 fold
B2: CD175 PV1-iCre-N270-L1-tandem CaffVHH-NLS-BGHpA (protein)
chain: MSNLLTVHQNLPALPVDATSDEVRKNLMDMFRDRQAFSEHTWKMLLSVCRSWAAWCKLNNRKWFPAEPEDVRDYLLYLQARGLAVKTIQQHLGQLNMLHRRSGLPRPSDSNAVSLVMRRIRKENVDAGERAKQALAFERTDFDQVRSLMENSDRCQDIRNLAFLGIAYNTLLRIAEIARIRVKDISRTDGGRMLIHIGRTKTLVSTAGVEKALSLGVTKLVERWISVSGVADDPNNYLFCRVRKNGVAAPSATSQLSTRALEGIFEATHRSGGSGSGSSGGSGTMEVQLQASGGGLVQAGGSLRLSCTASGRTGTIYSMAWFRQAPGKEREFLATVGWSSGITYYMDSVKGRFTISRDNAKNSAYLQMNSLKPEDTAVYYCTATRAYSVGYDYWGQGTQVTVSHVEEVQLQASGGGLVQAGGSLRLSCTASGRTGTIYSMAWFRQAPGKEREFLATVGWSSGITYYMDSVKGRFTISRDNAKNSAYLQMNSLKPEDTAVYYCTATRAYSVGYDYWGQGTQVTVSHPKKKRKV

gRNA induced mCherry knockdown efficiency, no CID domain [3]: < 80%
B3: CD375 PV1-RfxCas13d-N565-NLS-BGHpA (protein)
chain: MIEKKKSFAKGMGVKSTLVSGSKVYMTTFAEGSDARLEKIVEGDSIRSVNEGEAFSAEMADKNAGYKIGNAKFSHPKGYAVVANNPLYTGPVQQDMLGLKETLEKRYFGESADGNDNICIQVIHNILDIEKILAEYITNAAYAVNNISGLDKDIIGFGKFSTVYTYDEFKDPEHHRAAFNNNDKLINAIKAQYDEFDNFLDNPRLGYFGQAFFSKEGRNYIINYGNECYDILALLSGLRHWVVHNNEEESRISRTWLYNLDKNLDNEYISTLNYLYDRITNELTNSFSKNSAANVNYIAETLGINPAEFAEQYFRFSIMKEQKNLGFNITKLREVMLDRKDMSEIRKNHKVFDSIRTKVYTMMDFVIYRYYIEEDAKVAAANKSLPDNEKSLSEKDIFVINLRGSFNDDQKDALYYDEANRIWRKLENIMHNIKEFRGNKTREYKKKDAPRLPRILPAGRDVSAFSKLMYALTMFLDGKEINDLLTTLINKFDNIQSFLKVMPLIGVNAKFVEEYAFFKDSAKIADELRLIKSFARMGEPIADARRAMYIDAIRILGTNLSYDELKPKKKRKV
